Source: article doi:10.1101/2025.09.04.674342, “Tandem association of CLOCK:BMAL1 complexes on DNA enables recruitment of CBP/p300 through multivalent interactions” (bioRxiv, 2025)
Where “and” joins values, the source holds several entries; their conditions need not be identical. Identical values can stand only once.

Experiments:
[1] = biological target: BMAL1 TAD (residues 579–626) (mouse) (UniProt Q9WTL8); test: NMR titration; 15N-1H HSQC of 100 μM 15N BMAL1 TAD WT or L606A/L607A with stepwise additions of CBP KIX (WT or 3mut), TAZ1 or TAZ2; 25°C; 10 mM MES pH 6.5, 50 mM NaCl, 10% D2O; KD from fits of concentration-dependent CSPs, apparent
Sequence of BMAL1 TAD (residues 579–626) (mouse) (Q9WTL8 585-632): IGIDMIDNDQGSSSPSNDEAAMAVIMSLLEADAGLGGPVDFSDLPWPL

[2] = biological target: BMAL1 TAD L606A/L607A (residues 579–626) (mouse) (UniProt Q9WTL8); test: as above
Sequence of BMAL1 TAD L606A/L607A (residues 579–626) (mouse) (Q9WTL8 585-632 L612A/L613A): as the sequence (Q9WTL8 585-632) above, with L28A, L29A counted along it

[3] = biological target: human histone octamer in the nucleosome core particle (Widom 601 DNA with tandem E-boxes) (human) (UniProt P04908); test: mass photometry; NCP tandem 6bp 10 nM with CLOCK:BMAL1 bHLH-PAS-AB 60 nM (1:6), 30 min at room temperature; 20 mM Tris-HCl pH 7.5, 100 mM KCl, 0.5 mM TCEP

## CBP KIX Y650A/A654Q/Y658A (3mut) (from UniProt P45481 586-672) (domain or fragment)
[1]
  Kd: 160 µM

## CBP KIX domain (residues 586–672) (from UniProt P45481 586-672) (domain or fragment)
[2]
  Kd: 190 µM

## CLOCK:BMAL1 bHLH-PAS-AB heterodimer (from UniProt O08785 26-395; Q9WTL8-4 62-441) (complex)
[3]
  stoichiometry N: 2 and 3
